The target in experiment [1] is T1, 人TIGIT (hTIGIT) on 293T-hTIGIT cells (human) (UniProt Q495A1).
T1 sequence: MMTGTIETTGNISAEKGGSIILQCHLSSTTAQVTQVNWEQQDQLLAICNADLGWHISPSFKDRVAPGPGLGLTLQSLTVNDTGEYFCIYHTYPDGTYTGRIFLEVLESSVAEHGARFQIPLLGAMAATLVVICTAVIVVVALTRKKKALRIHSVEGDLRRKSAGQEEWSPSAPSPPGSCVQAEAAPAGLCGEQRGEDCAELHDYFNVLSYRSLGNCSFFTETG
Briefly: flow cytometry on 293T-hTIGIT cells, secondary antibody alone (background control). (In general: Flow cytometry measures light scatter and fluorescence of single cells or particles in a stream.)

Experiment [2] has as its target 食蟹猴TIGIT (Cyno-TIGIT) on 293T-Cyno-TIGIT cells (cynomolgus monkey (Macaca fascicularis)). Briefly: flow cytometry on 293T-Cyno-TIGIT cells, secondary antibody alone (background control).
Experiment [3] addresses T2, TIGIT-hFc蛋白(人TIGIT胞外区与人IgG1 Fc的融合蛋白) (human) (UniProt Q495A1).
T2 sequence: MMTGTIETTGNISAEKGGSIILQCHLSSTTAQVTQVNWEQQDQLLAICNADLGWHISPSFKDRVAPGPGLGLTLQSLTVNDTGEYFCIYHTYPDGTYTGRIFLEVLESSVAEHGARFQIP
The experiment can be described thus: flow cytometry, blocking of TIGIT-hFc binding to 293T-hPVR cells, hybridoma supernatant.

Experiment [4] addresses 食蟹猴TIGIT (Cyno-TIGIT) on 293T-Cyno-TIGIT cells (cynomolgus monkey (Macaca fascicularis)). Briefly: flow cytometry on 293T-Cyno-TIGIT cells, 50 uL hybridoma supernatant, APC anti-mouse IgG Fc.
Experiment [5] addresses T2, TIGIT-hFc蛋白(人TIGIT胞外区与人IgG1 Fc的融合蛋白) (human). The experiment can be described thus: flow cytometry, signal on 293T-hPVR cells with 500 ng TIGIT-hFc and 50 uL hybridoma supernatant.
In experiment [6] the target is T1, 人TIGIT (hTIGIT) on 293T-hTIGIT cells (human). Briefly: flow cytometry on 293T-hTIGIT cells, 0.5 ug antibody, APC anti-human IgG Fc.
Experiment [7] shares this target. The experiment can be described thus: flow cytometry on 293T-hTIGIT cells, 1.0 ug antibody, APC anti-human IgG Fc.
For experiment [8] the target is unchanged. The experiment can be described thus: flow cytometry on 293T-hTIGIT cells, 1.7 ug antibody, APC anti-human IgG Fc.

Sequence of 食蟹猴TIGIT (Cyno-TIGIT) on 293T-Cyno-TIGIT cells (cynomolgus monkey (Macaca fascicularis)) (chain, as listed by the source limits assumed): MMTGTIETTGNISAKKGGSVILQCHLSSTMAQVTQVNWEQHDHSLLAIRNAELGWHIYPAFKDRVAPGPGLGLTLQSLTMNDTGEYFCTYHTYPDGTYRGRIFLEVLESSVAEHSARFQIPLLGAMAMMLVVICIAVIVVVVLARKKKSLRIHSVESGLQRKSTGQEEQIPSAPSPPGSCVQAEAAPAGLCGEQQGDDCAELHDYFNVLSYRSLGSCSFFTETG

Regarding “APC抗人IgG Fc二抗(Biolegend, Cat409306) (antibody)”, in experiment [1], the Geom.Mean turned out to be 405.
In the case of “APC羊抗小鼠IgG Fc二抗(Biolegend, Cat405308) (antibody)”, in experiment [2], the Geom.Mean is 1920.

B1: 鼠源抗TIGIT抗体(杂交瘤18A12分泌的抗体) (antibody, V domains shown)
VH: QVQLLESGGGLVQPGGSMKLSCVVSGFTFSNYWMNWVRQSPEKGLEWVAEIRLKSNNYATHYAESVKGRFAISRDDSKSSVYLQMNNLRAEDTGVYYCTRLYYGNYFDYWGQGTTLTVSS
VL: DIQMTQSPASLSASVGETVTITCRASENTYSYLAWYQQKQGKSPQLLVYNAKTLAEGVPSRFSGSGSGTQFSLKITSLQPEDFGSYYCQHHYAFSYTFGGGTKLEMK
In experiment [3], B1 displayed a 阻断率% of 80.9%. In addition, the results for the Geom.Mean in experiment [4] and in experiment [5] were 20000 and 2760, respectively.

B2: 抗TIGIT嵌合抗体(IgG1亚型) (antibody, V domains shown)
VH: QVQLLESGGGLVQPGGSMKLSCVVSGFTFSNYWMNWVRQSPEKGLEWVAEIRLKSNNYATHYAESVKGRFAISRDDSKSSVYLQMNNLRAEDTGVYYCTRLYYGNYFDYWGQGTTLTVSS
VL: DIQMTQSPASLSASVGETVTITCRASENTYSYLAWYQQKQGKSPQLLVYNAKTLAEGVPSRFSGSGSGTQFSLKITSLQPEDFGSYYCQHHYAFSYTFGGGTKLEMKR
Regarding B2, the Geom.Mean in experiment [6] was 8790; in experiment [7] it was 10300; in experiment [8], 12200.

The record behind these values is patent publication CN114790241A.
